T1: human TREM2 Fc fusion protein (human, UniProt Q9NZC2 19-174)
T1 construct: also called hTREM2-Fc; not shown: Fc part not specified
T1 sequence: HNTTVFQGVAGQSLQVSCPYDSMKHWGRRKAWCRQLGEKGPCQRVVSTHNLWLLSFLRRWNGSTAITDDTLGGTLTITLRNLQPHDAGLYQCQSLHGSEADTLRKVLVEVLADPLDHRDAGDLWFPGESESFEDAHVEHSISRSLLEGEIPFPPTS

T2: mouse TREM2 Fc fusion protein (mouse, UniProt Q99NH8 19-171)
T2 construct: also called mTREM2-Fc; not shown: Fc part not specified
T2 sequence (looked up): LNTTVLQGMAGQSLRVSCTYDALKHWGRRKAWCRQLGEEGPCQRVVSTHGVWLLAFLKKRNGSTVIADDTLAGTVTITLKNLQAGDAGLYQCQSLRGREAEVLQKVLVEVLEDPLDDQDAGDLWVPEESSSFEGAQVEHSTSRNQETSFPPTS

T3: mouse TREM2 on cells (mouse, UniProt Q99NH8 19-227)
T3 construct: whole, on cells; Used for the recombinant protein on BWZ/BW cells (with mouse DAP12) and for the native protein on mouse macrophages and dendritic cells; the cell type stands under assay; also called mTREM2; mTrem2
T3 sequence (looked up): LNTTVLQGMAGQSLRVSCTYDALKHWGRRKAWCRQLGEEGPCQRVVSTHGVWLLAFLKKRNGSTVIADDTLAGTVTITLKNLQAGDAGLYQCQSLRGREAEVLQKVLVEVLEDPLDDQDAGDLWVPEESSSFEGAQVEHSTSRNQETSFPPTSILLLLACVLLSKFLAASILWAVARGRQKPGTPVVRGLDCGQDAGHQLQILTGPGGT

T4: human monomeric His tagged TREM2 protein (human, UniProt Q9NZC2 19-174)
T4 construct: also called hTREM2-HIS
T4 sequence: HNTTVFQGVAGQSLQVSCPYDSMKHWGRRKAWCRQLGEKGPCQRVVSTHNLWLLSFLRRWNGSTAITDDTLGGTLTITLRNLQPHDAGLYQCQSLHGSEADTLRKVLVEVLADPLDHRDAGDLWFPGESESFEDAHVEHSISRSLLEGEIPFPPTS

B1: Ab66 (antibody, human IgG1, V domains shown)
VH: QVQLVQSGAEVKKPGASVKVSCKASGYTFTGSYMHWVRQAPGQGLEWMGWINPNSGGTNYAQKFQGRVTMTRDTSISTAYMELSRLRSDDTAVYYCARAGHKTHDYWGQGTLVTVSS
VL: EIVLTQSPGTLSLSPGERATLSCRASQSVSSYLAWYQQKPGQAPRLLIYDASNRATGIPARFSGSGSGTDFTLTISSLEPEDFAVYYCQQRSAYPITFGGGTKVEIK
notes: human IgG1
B2: Ab69 (antibody, human IgG1, V domains shown)
VH: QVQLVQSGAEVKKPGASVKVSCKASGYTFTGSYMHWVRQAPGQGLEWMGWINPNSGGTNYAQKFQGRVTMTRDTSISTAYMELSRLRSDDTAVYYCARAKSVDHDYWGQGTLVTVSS
VL: EIVLTQSPATLSLSPGERATLSCRASQSVSSYLAWYQQKPGQAPRLLIYDASNRATGIPARFSGSGSGTDFTLTISSLEPEDFAVYYCQQRADYPITFGGGTKVEIK
notes: human IgG1
B3: Ab68 (antibody, human IgG1, V domains shown)
VH: QVQLVESGGGVVQPGRSLRLSCAASGFTFSSYGMHWVRQAPGKGLEWVALIWYDGSNKYYADSVKGRFTISRDNSKNTLYLQMNSLRAEDTAVYYCAKPGSMTDYWGQGTLVTVSS
VL: EIVLTQSPATLSLSPGERATLSCRASQSVSSYLAWYQQKPGQAPRLLIYDASNRATGIPARFSGSGSGTDFTLTISSLEPEDFAVYYCQQRANYPITFGGGTKVEIK
notes: human IgG1
B4: Ab71 (antibody, human IgG1, V domains shown)
VH: QVQLVQSGAEVKKPGASVKVSCKASGYTFTSYYMHWVRQAPGQGLEWMGIINPSGGSTSYAQKFQGRVTMTRDTSTSTVYMELSSLRSEDTAVYYCARDISTHDYDLAFDIWGQGTMVTVSS
VL: EIVMTQSPGTLSLSPGERATLSCRASQSVSSSYLAWYQQKPGQAPRLLIYGASNRATGIPDRFSGSGSGTDFTLTISRLEPEDFAVYYCQQAGSHPFTFGGGTKVEIK
notes: human IgG1
B5: Ab78 (antibody, human IgG1, V domains shown)
VH: QVQLVESGGGVVQPGRSLRLSCAASGFTFSSYGMHWVRQAPGKGLEWVAVIWYDGSNKYYADSVKGRFTISRDNSKNTLYLQMNSLRAEDTAVYYCARTPYPWIYFDLWGRGTLVTVSS
VL: EIVLTQSPATLSLSPGERATLSCRASQSVSSYLAWYQQKPGQAPRLLIYDASNRATGIPARFSGSGSGTDFTLTISSLEPEDFAVYYCQQADNWPFTFGGGTKVEIK
notes: human IgG1
B6: Ab2 (antibody, human IgG1, V domains shown)
VH: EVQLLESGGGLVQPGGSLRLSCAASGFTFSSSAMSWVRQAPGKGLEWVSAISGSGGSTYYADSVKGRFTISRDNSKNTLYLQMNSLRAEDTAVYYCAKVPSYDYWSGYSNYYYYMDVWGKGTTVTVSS
VL: EIVLTQSPATLSVSPGERATLSCRASQSVGSNLAWYQQKPGQAPRLLIYGASTRATGIPARFSGSGSGTEFTLTISSLQSEDFAVYYCQQYFFYPPTFGGGTKVEIK
notes: human IgG1
B7: Ab7 (antibody, human IgG1, V domains shown)
VH: QVQLVQSGAEVKKPGASVKVSCKASGYTFTSYYMHWVRQAPGQGLEWMGIINPSGGSTTYAQKFQGRVTMTRDTSTSTVYMELSSLRSEDTAVYYCARTSSKERDYWGQGTLVTVSS
VL: EIVLTQSPATLSLSPGERATLSCRASQSVSSYLAWYQQKPGQAPRLLIYDASKRATGIPARFSGSGSGTDFTLTISSLEPEDFAVYYCQQRISYPITFGGGTKVEIK
notes: human IgG1
B8: Ab8 (antibody, human IgG1, V domains shown)
VH: QLQLQESGPGLVKPSETLSLTCTVSGGSISSSSYYWGWIRQPPGKGLEWIGSISYSGSTYYNPSLKSRVTISVDTSKNQFSLKLSSVTAADTAVYYCARGPYRLLLGMDVWGQGTTVTVSS
VL: DIQMTQSPSSLSASVGDRVTITCRASQSISSYLNWYQQKPGKAPKLLIYGASSLQSGVPSRFSGSGSGTDFTLTISSLQPEDFATYYCQQIDDTPITFGGGTKVEIK
notes: human IgG1

Key:
[1] = target: T1, human TREM2 Fc fusion protein; assay: ForteBio or MSD-SET, avid
[2] = target: T2, mouse TREM2 Fc fusion protein; assay: ForteBio or MSD-SET, avid
mouse TREM2 on cells = target: T3, mouse TREM2 on cells; assay: FACS, mTrem2 cells
[3] = target: T4, human monomeric His tagged TREM2 protein; assay: ForteBio or MSD-SET, monovalent

Row | Binder | Kd [1] | Kd [2] | MFI (mouse TREM2 on cells) | Kd [3] | binding result [2]
1 | B1 | 1.98 nM | 3.88 nM | 4100 MFI | 60.7 nM | –
2 | B2 | 3.75 nM | 3.4 nM | 629 MFI | 59.7 nM | –
3 | B3 | 6.68 nM | 3.26 nM | 2100 MFI | 109 nM | –
4 | B4 | 2.77 nM | – | 804 MFI | 64.7 nM | no binding
5 | B5 | 0.851 nM | – | 433 MFI | 37.3 nM | no binding
6 | B6 | 0.592 nM | – | 1430 MFI | 24.1 nM | no binding
7 | B7 | 1.05 nM | 1.11 nM | 10900 MFI | 33.4 nM | –
8 | B8 | 0.723 nM | – | 523 MFI | 15 nM | no binding
